The values that follow come from US20070093443.

One series deals with T1, Ac-SLGR-AMC.
T1 chain: SLGR

A further series addresses T2, Complement C2 (human).
T2 chain: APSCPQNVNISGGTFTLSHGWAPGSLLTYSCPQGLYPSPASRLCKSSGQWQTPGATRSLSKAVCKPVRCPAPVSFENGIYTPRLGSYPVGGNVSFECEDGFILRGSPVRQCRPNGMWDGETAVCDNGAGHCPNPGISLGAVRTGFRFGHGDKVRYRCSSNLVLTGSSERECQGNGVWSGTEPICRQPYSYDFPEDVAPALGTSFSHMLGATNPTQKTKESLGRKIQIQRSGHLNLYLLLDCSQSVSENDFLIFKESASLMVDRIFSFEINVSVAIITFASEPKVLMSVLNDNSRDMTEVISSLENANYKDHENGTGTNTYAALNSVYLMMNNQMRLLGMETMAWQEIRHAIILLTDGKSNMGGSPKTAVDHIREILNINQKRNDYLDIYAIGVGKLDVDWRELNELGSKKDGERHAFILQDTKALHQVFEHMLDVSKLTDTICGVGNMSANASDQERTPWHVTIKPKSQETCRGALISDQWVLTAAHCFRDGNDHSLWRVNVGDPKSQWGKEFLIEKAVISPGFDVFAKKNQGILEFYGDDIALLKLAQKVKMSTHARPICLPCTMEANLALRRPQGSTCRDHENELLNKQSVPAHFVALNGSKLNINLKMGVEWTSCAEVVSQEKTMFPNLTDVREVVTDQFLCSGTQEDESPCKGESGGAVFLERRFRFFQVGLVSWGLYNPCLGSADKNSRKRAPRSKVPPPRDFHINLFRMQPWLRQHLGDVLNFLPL

Series [1] has as its target Complement component C7 (human).
In another series the target is T3, Ac-RQAR-AMC.
T3 chain: RQAR

The target of series [2] is Complement component C9 (human).
Sequence of Complement component C9 (human) (chain, as listed by the source): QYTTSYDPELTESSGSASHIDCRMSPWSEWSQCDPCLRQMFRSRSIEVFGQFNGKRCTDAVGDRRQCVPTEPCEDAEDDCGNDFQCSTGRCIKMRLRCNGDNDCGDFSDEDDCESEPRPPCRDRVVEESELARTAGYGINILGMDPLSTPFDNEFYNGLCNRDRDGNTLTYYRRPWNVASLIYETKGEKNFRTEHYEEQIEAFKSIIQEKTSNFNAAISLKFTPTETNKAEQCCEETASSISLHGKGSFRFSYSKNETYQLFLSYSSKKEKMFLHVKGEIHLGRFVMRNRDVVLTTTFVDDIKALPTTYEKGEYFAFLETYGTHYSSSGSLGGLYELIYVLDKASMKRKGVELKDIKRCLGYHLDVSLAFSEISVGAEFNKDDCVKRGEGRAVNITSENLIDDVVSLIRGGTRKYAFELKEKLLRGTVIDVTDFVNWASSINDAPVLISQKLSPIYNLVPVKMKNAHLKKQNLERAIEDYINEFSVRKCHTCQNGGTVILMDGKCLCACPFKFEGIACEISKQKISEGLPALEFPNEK
Series [3] addresses Complement component C6 (human).
Series [4] concerns the target Complement component C8 (human).
In another series the target is T4, Complement C4 (human).
T4 chain 1: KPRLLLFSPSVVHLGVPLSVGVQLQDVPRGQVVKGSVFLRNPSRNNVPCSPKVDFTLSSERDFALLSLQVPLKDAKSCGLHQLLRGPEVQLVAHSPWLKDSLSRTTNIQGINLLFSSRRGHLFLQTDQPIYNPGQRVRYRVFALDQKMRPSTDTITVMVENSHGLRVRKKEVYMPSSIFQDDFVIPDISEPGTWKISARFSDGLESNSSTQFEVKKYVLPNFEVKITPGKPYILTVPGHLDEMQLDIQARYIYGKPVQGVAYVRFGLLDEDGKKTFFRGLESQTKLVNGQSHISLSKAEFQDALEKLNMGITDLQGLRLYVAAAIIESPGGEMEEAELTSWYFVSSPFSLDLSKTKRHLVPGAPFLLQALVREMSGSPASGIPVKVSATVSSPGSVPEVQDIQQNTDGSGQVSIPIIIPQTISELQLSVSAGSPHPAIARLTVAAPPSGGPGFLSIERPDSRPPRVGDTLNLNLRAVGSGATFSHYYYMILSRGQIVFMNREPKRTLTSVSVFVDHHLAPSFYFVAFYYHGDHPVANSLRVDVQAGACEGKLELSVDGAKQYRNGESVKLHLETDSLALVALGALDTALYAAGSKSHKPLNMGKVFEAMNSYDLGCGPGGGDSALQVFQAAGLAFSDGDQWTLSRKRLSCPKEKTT
T4 chain 2: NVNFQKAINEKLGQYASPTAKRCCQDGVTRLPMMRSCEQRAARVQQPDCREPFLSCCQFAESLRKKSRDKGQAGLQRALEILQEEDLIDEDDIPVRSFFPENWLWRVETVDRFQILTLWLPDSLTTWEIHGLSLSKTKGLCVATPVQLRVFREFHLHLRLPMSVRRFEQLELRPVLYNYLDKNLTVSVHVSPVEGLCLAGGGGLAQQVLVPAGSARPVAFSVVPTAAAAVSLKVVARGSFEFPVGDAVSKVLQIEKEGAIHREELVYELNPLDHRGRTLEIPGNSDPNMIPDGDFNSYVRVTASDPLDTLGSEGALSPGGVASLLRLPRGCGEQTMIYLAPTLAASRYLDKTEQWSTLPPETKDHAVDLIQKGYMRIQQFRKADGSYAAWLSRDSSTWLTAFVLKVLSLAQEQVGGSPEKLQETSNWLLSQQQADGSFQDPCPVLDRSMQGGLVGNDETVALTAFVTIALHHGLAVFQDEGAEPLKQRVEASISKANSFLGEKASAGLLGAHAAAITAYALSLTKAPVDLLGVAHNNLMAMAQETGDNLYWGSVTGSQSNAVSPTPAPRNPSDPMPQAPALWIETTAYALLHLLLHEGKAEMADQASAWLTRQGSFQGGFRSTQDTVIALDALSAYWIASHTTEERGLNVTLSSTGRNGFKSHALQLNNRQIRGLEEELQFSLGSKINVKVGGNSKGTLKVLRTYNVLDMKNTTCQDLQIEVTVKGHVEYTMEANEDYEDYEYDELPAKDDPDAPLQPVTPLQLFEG
T4 chain 3: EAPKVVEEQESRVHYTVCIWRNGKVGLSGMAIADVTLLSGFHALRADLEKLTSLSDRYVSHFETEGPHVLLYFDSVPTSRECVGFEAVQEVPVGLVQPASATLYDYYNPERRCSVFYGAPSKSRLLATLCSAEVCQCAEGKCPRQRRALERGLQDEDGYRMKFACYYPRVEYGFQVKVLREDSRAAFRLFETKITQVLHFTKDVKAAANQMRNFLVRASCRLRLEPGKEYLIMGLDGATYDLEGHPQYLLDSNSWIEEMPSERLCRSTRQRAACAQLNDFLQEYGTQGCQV

A further series concerns the target T5, Ac-GLAR-AMC.
T5 chain: GLAR

Sequence of Complement C5 (human) (chain, as listed by the source, chain 1 of 2): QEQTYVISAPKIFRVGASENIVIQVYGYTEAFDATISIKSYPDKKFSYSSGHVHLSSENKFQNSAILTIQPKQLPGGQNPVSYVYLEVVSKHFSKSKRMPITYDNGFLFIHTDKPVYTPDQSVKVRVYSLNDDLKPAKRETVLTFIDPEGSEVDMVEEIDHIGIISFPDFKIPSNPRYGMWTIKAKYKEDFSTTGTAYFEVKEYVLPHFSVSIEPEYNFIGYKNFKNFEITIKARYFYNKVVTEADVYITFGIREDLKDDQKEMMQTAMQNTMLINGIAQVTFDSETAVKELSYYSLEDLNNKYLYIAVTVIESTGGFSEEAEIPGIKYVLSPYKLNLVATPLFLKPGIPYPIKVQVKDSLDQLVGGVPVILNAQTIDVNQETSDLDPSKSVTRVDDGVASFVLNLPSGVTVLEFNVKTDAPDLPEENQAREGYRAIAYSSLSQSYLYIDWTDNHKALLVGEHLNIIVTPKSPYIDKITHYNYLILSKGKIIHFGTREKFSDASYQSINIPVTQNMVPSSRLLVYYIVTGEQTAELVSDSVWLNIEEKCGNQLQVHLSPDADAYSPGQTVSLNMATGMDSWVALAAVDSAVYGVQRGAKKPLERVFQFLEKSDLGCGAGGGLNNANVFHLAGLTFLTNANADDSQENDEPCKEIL
Sequence of Complement C5 (human) (chain, as listed by the source, chain 2 of 2): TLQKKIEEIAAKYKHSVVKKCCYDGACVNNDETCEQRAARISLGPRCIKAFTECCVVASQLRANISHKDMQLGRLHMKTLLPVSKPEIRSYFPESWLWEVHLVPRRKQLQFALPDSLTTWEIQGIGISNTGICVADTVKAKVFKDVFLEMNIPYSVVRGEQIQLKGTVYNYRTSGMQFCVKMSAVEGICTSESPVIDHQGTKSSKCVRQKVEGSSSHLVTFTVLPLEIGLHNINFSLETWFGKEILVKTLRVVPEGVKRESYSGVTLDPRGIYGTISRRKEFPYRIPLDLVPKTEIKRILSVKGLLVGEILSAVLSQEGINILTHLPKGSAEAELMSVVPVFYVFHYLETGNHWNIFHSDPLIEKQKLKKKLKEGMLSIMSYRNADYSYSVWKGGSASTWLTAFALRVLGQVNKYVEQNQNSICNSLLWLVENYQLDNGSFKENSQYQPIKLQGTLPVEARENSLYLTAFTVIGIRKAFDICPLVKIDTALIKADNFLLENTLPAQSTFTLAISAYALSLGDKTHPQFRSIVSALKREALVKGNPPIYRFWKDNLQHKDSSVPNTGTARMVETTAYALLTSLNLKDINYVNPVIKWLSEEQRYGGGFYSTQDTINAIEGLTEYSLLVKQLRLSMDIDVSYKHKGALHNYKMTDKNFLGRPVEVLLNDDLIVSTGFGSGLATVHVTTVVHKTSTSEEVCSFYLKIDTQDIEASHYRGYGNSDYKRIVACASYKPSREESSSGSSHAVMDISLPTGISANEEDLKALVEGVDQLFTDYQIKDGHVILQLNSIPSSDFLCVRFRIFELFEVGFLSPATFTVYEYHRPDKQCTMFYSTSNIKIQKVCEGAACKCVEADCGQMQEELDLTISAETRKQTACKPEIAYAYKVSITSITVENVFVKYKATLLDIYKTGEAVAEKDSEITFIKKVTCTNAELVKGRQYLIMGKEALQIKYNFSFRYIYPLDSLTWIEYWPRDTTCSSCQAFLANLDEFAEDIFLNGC
Sequence of Complement component C8 (human) (chain, as listed by the source, chain 1 of 3): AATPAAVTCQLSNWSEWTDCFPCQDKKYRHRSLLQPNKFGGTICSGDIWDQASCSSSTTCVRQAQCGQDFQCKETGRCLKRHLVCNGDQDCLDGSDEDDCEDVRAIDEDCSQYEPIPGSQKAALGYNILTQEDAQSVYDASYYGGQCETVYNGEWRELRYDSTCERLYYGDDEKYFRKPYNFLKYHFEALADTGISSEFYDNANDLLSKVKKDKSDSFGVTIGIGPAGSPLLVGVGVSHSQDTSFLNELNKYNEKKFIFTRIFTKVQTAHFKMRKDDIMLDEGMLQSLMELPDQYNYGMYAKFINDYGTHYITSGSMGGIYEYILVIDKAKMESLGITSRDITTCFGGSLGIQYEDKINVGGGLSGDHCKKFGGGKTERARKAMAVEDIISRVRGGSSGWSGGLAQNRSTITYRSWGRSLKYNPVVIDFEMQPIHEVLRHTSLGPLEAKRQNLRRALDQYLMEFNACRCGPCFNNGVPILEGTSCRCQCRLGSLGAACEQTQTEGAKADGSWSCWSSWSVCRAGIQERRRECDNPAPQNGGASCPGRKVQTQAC
Sequence of Complement component C8 (human) (chain, as listed by the source, chain 2 of 3): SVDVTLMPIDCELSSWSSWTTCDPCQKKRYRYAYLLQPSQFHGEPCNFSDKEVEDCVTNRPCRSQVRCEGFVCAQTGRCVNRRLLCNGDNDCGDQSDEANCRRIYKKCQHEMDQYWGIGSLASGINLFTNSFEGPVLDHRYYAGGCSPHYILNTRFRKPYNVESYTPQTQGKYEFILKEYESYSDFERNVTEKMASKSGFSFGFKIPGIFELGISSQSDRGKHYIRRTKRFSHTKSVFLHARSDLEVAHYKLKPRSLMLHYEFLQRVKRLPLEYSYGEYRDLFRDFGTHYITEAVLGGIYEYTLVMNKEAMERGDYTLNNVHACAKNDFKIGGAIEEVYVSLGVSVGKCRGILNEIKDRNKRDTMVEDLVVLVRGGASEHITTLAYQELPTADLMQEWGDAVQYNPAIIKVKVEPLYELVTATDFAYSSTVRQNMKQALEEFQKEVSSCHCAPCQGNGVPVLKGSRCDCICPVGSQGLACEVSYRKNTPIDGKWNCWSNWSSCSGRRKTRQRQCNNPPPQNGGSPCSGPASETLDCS
Sequence of Complement component C8 (human) (chain, as listed by the source, chain 3 of 3): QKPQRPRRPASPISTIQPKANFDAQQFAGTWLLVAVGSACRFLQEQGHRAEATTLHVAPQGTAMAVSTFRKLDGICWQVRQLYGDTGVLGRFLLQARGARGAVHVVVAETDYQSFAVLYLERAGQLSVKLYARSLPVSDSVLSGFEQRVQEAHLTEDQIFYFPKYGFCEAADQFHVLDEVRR
Sequence of Complement component C7 (human) (chain, as listed by the source): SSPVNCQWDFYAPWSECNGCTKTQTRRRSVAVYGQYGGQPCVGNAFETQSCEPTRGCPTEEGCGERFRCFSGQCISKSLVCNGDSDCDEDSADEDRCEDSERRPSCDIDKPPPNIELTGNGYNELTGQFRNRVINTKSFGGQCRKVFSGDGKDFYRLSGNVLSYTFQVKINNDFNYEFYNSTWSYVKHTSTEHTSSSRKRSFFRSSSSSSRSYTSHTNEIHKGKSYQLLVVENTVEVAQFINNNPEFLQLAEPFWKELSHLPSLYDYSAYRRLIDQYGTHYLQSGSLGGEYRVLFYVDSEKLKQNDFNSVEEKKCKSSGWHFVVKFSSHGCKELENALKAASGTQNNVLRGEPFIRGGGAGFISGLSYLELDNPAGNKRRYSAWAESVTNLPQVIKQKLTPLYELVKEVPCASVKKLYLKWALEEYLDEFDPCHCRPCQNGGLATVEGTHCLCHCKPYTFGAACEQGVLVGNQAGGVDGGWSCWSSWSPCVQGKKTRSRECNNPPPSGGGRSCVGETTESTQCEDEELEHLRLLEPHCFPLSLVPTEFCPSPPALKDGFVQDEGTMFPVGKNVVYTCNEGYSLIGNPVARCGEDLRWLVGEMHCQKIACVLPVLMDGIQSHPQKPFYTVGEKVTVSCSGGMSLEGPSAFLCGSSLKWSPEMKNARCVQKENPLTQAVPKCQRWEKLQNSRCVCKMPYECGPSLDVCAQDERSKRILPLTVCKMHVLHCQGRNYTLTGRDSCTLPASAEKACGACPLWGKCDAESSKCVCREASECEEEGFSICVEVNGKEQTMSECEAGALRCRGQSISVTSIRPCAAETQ

B1: wildtype MT-SP1 protease domain (CB200) (protein)
chain: VVGGTDADEGEWPWQVSLHALGQGHICGASLISPNWLVSAAHCYIDDRGFRYSDPTQWTAFLGLHDQSQRSAPGVQERRLKRIISHPFFNDFTFDYDIALLELEKPAEYSSMVRPICLPDASHVFPAGKAIWVTGWGHTQYGGTGALILQKGEIRVINQTTCENLLPQQITPRMMCVGFLSGGVDSCQGDSGGPLSSVEADGRIFQAGVVSWGDGCAQRNKPGVYTRLPLFRDWIKENTGV
With B1, the kcat/Km (specificity constant), fluorogenic peptide cleavage in the series with Ac-SLGR-AMC worked out at 20000 M⁻¹ s⁻¹; with Ac-RQAR-AMC, 1.9e+06 M⁻¹ s⁻¹; in the series with Ac-GLAR-AMC, 64000 M⁻¹ s⁻¹. Also, the “hemolysis (OD415) by protease-preincubated purified complement protein added back to the corresponding depleted sera” value with Complement C1q (human) is “showed no decreased hemolysis as compared to normal sera or the no protease control”; with Complement C3 (human), “showed no decreased hemolysis as compared to normal sera or the no protease control”; with Complement C5 (human), “showed no decreased hemolysis as compared to normal sera or the no protease control”; with Complement C2 (human) it was “resulted in an inhibition of hemolysis as assessed by a reduced OD415 absorbance to levels comparable to the depleted sera control”; in series [1] it was “showed no decreased hemolysis as compared to normal sera or the no protease control”; in series [2], “showed no decreased hemolysis as compared to normal sera or the no protease control”. In addition, the “hemolysis (OD415) by protease-preincubated purified complement protein added back to the corresponding depleted sera” value (in series [3]; in [4]; with Complement C4 (human)) was “showed no decreased hemolysis as compared to normal sera or the no protease control” throughout. Besides, the Fraction of Hemolysis (protease-incubated purified complement protein added back to depleted sera) with Complement C3 (human) amounted to 0.00834; in the series with Complement C5 (human), 0.888; with Complement C2 (human), 0; with Complement C4 (human), 0.97. Moreover, the “cleavage in 90% human plasma by Western blot” value is “none of the tested proteases cleaved C3 in human plasma as compared to the no protease control even at the highest concentration of protease (2000 nM)” in the series with Complement C3 (human) and “cleaved C2 in human plasma in a dose-dependent manner” in the series with Complement C2 (human). Also, the “fraction C5b-9 generated, Total Complement System Screen (classical and MBL pathways), 1 uM protease in human plasma” value with Complement C2 (human) was “the fraction C5b-9 generated upon complement activation induced by the classical and MBL pathways was almost completely inhibited”. The kcat/Km (specificity constant) of cleavage of full length C2, in gel kinetics (SDS-PAGE densitometry time course) with Complement C2 (human) came to 19500 M⁻¹ s⁻¹.
